Literature values as cited in article PMC4464844.

Legend:
Tyr9 [1] = target: Tyr9 (UniProt position 9, KPKLHYFNARG)
Tyr9 [2] = target: Tyr9 (UniProt position 9, KPKLHYFNGRG)
Tyr9 [3] = target: Tyr9 (UniProt position 9, RPKLHYPNGRG)

In the case of “Glutathione transferase A1-1 (hGSTA1-1) (Homo sapiens)”, the pKa (Tyr9 [1]) is listed as 8.1.
In the case of “Glutathione transferase A1-1 GIMFhelix mutant (Homo sapiens; A12G;L107I;L108M;V111F;residues 208-222 replaced by the GSTA4-4 sequence)”, the pKa (Tyr9 [2]) is given as 7.3.
For “Glutathione transferase A4-4 (hGSTA4-4) (Homo sapiens)”, the pKa (Tyr9 [3]) is listed as 6.7.
